Measurements reported in publication PMC8424595 (The Journal of Biological Chemistry, 2021).
Numbering of substitutions follows the chain as printed. Where no end group is shown, it is not given here. fluorescein = fluorescein label at the N-terminus

Legend:
Ssa1 = Ssa1 (Saccharomyces cerevisiae, UniProt P10591); assay: fluorescence polarization, displacement of ATP-FAM; type: binding; conditions: 50 uM ATP, 1 uM Ssa1, 20 nM ATP-FAM, pH 7.5, 25 °C
Msi3 = target: T1, Msi3 (Candida albicans, UniProt Q96VB9); assay: limited trypsin digest; type: binding; conditions: 1 mM ATP, pH 7.5, 10 mM Mg(OAc)2, 25 °C
T1 sequence (Q96VB9 1-701): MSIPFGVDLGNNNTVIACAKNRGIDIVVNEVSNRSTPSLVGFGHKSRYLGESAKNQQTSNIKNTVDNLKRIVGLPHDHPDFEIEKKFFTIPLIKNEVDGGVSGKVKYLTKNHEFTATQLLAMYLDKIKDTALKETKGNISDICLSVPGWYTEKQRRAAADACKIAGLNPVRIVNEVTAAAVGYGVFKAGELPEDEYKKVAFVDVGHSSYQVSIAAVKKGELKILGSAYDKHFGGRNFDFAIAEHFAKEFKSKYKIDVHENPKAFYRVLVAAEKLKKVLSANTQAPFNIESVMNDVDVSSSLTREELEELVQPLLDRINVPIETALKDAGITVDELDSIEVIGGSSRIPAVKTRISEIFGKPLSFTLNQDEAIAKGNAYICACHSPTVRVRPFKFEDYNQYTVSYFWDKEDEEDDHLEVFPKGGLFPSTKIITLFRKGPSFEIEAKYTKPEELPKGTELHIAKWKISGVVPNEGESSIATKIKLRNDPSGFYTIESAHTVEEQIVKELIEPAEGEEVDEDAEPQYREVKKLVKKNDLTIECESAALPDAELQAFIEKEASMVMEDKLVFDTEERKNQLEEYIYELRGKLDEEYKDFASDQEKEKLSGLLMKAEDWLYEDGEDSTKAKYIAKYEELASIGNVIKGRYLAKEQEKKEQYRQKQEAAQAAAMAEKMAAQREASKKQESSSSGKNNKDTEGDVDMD

[1] = target: T2, Msi3, the sole Hsp110 in Candida albicans, wild type (Candida albicans, UniProt Q96VB9 1-701); assay: fluorescence polarisation
T2 sequence (looked up): T1 sequence (Q96VB9 1-701)

Msi3 I164D = target: T3, Msi3 I164D (Candida albicans, UniProt Q96VB9 1-701, I164D); assay: fluorescence polarisation
T3 sequence (looked up): T1 sequence (Q96VB9 1-701) with I164D

Msi3 R235E = target: T4, Msi3 R235E (Candida albicans, UniProt Q96VB9 1-701, R235E); assay: fluorescence polarisation
T4 sequence (looked up): T1 sequence (Q96VB9 1-701) with R235E

Msi3-Ssa1 complex = Msi3-Ssa1 complex (Candida albicans | S. cerevisiae, UniProt Q96VB9 1-701; P10591 1-642); assay: native gel or EMSA
Msi3-Ssa1 complex, sequence (P10591 whole entry, one chain of several): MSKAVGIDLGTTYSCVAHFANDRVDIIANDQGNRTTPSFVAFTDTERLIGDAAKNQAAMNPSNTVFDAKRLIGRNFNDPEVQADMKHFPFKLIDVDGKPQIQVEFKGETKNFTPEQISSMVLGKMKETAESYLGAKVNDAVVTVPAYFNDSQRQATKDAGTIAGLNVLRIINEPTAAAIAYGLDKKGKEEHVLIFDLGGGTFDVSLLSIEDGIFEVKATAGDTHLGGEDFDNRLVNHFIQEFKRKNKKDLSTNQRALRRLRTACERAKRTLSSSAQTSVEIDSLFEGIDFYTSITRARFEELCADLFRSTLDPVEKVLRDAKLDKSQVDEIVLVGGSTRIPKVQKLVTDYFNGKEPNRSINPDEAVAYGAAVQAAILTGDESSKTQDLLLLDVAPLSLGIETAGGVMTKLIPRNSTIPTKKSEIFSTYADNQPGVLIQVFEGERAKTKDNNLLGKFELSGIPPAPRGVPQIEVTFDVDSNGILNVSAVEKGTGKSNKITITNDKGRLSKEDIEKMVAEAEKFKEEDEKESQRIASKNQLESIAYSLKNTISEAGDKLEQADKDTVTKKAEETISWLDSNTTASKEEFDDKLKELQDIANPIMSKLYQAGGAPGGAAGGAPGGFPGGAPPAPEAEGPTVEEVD

[2] = target: Ssa1, the major Hsp70 in the cytosol of S. cerevisiae (S. cerevisiae, UniProt P10591 1-642); assay: native gel or EMSA
Ssa1, the major Hsp70 in the cytosol of S. cerevisiae, sequence (P10591 whole entry): as the sequence (P10591 whole entry, one chain of several) above

Ssa1, sequence (P10591 2-642): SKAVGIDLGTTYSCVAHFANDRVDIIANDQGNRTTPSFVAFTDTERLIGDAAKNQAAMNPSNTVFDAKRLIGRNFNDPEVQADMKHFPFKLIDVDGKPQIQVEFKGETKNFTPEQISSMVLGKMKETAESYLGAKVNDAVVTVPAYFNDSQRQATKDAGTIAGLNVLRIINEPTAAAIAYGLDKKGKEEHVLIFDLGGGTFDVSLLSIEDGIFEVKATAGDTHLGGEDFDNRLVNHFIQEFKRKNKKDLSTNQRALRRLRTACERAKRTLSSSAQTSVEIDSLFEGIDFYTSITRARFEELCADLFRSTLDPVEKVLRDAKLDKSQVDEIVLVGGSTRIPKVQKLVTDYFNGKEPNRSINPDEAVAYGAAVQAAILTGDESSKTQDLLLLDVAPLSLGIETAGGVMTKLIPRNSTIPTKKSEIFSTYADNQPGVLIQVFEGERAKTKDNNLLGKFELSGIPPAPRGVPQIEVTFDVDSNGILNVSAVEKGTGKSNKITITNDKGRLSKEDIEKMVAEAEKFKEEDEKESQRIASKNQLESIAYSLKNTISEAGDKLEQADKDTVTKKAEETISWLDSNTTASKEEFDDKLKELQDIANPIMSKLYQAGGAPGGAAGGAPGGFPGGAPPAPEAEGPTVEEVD

Nc1ncnc2c1ncn2[C@@H]1O[C@H](COP(=O)(O)OP(=O)(O)OP(=O)(O)O)[C@@H](O)[C@H]1O [ATP]
fluorescence polarization, displacement of ATP-FAM (Ssa1): the bound ATP-FAM was slowly replaced by the unlabeled ATP
limited trypsin digest (ATP-induced conformational change) (Msi3): two signature proteolytic bands were observed in the presence of ATP for the WT Msi3

B1: TRP2_181 peptide (peptide)
peptide: fluorescein-VYDFFVWLHYY
binding result [1]: binds
binding result (Msi3 I164D): binds
binding result (Msi3 R235E): binds

B2: NR peptide (peptide)
peptide: fluorescein-NRLLLTG
binding result (Msi3-Ssa1 complex): binds
binding result [2]: binds
